Assay results as given in patent EP4674868A1 (Jiangsu Hengrui Pharmaceuticals Co., Ltd., dated 2026).
Where a chain is given by its changes, count along the chain named. In names and notes the source's numbering stands. Where two headings read alike, the source gives them in different places.

B1: Ab10-A12V2-2 (FAP/CD40 bispecific antibody molecule, control) (bispecific antibody, human IgG1, kappa, L234A L235A)
heavy: not shown
light: DIQMTQSPSSVSASVGDRVTITCRASQGISSWLAWYQQKPGKAPKLLIYAASSLQSGVPSRFSGSGSGTDFTLTISSLQPEDFATYYCQQANSFPPAFGQGTKVEIKRTVAAPSVFIFPPSDEQLKSGTASVVCLLNNFYPREAKVQWKVDNALQSGNSQESVTEQDSKDSTYSLSSTLTLSKADYEKHKVYACEVTHQGLSSPVTKSFNRGEC
B2: BNT312 (CD40/4-1BB bispecific antibody molecule, control) (bispecific antibody, human IgG1, kappa)
heavy 1: EVQLVQSGAEVKKPGASVKVSCKTSGYTFTEYIMHWVRQAPGQGLEWMGGIIPNNGGTSYNQKFQGRVTMTVDKSTSTGYMELSSLRSEDTAVYYCTRREVYGRNYYALDYWGQGTLVTVSSASTKGPSVFPLAPSSKSTSGGTAALGCLVKDYFPEPVTVSWNSGALTSGVHTFPAVLQSSGLYSLSSVVTVPSSSLGTQTYICNVNHKPSNTKVDKRVEPKSCDKTHTCPPCPAPEFEGGPSVFLFPPKPKDTLMISRTPEVTCVVVAVSHEDPEVKFNWYVDGVEVHNAKTKPREEQYNSTYRVVSVLTVLHQDWLNGKEYKCKVSNKALPAPIEKTISKAKGQPREPQVYTLPPSREEMTKNQVSLTCLVKGFYPSDIAVEWESNGQPENNYKTTPPVLDSDGSFLLYSKLTVDKSRWQQGNVFSCSVMHEALHNHYTQKSLSLSPGK
light 1: not shown
heavy 2: EVQLVESGGGLVQPGRSLRLSCTASGFSLNDYWMSWVRQAPGKGLEWVGYIDVGGSLYYAASVKGRFTISRDDSKSIAYLQMNSLKTEDTAVYYCARGGLTYGFDLWGQGTLVTVSSASTKGPSVFPLAPSSKSTSGGTAALGCLVKDYFPEPVTVSWNSGALTSGVHTFPAVLQSSGLYSLSSVVTVPSSSLGTQTYICNVNHKPSNTKVDKRVEPKSCDKTHTCPPCPAPEFEGGPSVFLFPPKPKDTLMISRTPEVTCVVVAVSHEDPEVKFNWYVDGVEVHNAKTKPREEQYNSTYRVVSVLTVLHQDWLNGKEYKCKVSNKALPAPIEKTISKAKGQPREPQVYTLPPSREEMTKNQVSLTCLVKGFYPSDIAVEWESNGQPENNYKTTPPVLDSDGSFFLYSRLTVDKSRWQQGNVFSCSVMHEALHNHYTQKSLSLSPGK
light 2: DIVMTQSPSSLSASVGDRVTITCQASEDISSYLAWYQQKPGKAPKRLIYGASDLASGVPSRFSASGSGTDYTFTISSLQPEDIATYYCHYYATISGLGVAFGGGTKVEIKRTVAAPSVFIFPPSDEQLKSGTASVVCLLNNFYPREAKVQWKVDNALQSGNSQESVTEQDSKDSTYSLSSTLTLSKADYEKHKVYACEVTHQGLSSPVTKSFNRGEC
B3: Urelumab (positive control anti-4-1BB antibody) (antibody, V domains shown)
VH: QVQLQQWGAGLLKPSETLSLTCAVYGGSFSGYYWSWIRQSPEKGLEWIGEINHGGYVTYNPSLESRVTISVDTSKNQFSLKLSSVTAADTAVYYCARDYGPGNYDWYFDLWGRGTLVTVSS
VL: EIVLTQSPATLSLSPGERATLSCRASQSVSSYLAWYQQKPGQAPRLLIYDASNRATGIPARFSGSGSGTDFTLTISSLEPEDFAVYYCQQRSNWPPALTFGGGTKVEIK
B4: humanized anti-4-1BB nanobody C5_V2 linked to human IgG1-Fc (Fc fusion)
chain: QVQLVESGGGLVQPGGSLRLSCSASGFTFSSYAMSWVRQAPGKGLEWVSDINSGGESTFYEDSVKGRFTISRDNAKNTLYLQMNSLRAEDTAVYYCAKHPLTFTIATMNDYDYWGQGTLVTVSSEPKSADKTHTCPPCPAPELLGGPSVFLFPPKPKDTLMISRTPEVTCVVVDVEHEDPEVKFNWYVDGVEVHNAKTKPREEQYNSTYRVVSVLTVLHQDWLNGKEYKCKVSSKAFPAPIEKTISKAKGQPREPQVYTLPPSRDELTKNQVSLTCLVKGFYPSDIAVEWESNGQPENNYKTTPPVLDSDGSFFLYSKLTVDKSRWQQGNVFSCSVMHEALHNHYTQKSLSLSPGK
B5: C5_V2-YTI (TCE-optimized C5_V2, F99Y Kabat) linked to human IgG1-Fc (Fc fusion)
chain: B4 chain with F103Y

How the values were obtained:
[1] = biological target: T1, human FAP on the surface of CHO-K1 cells (CHO-K1-HuFAP) (human, UniProt Q12884 1-760); test: FACS, CHO-K1-HuFAP cells
T1 construct: whole, on cells; also called CHO cell line overexpressing human FAP; FAP on the surface of CHO-K1-HuFAP cells

[2] = biological target: T2, human 4-1BB on the surface of HEK293 cells (HEK293-Hu4-1BB) (human, UniProt Q07011 24-255); test: cell-based or functional assay
[3] = biological target: T3, human CD40 on the surface of HEK293 cells (HEK293-HuCD40) (human, UniProt P25942 21-277); test: cell-based or functional assay
[4] = biological target: T2, human 4-1BB on the surface of HEK293 …; test: FACS, HEK293-Hu4-1BB cells
[5] = biological target: T3, human CD40 on the surface of HEK293 …; test: cell-based or functional assay; remark: listed apart in the source
[6] = biological target: T3, human CD40 on the surface of HEK293 …; test: cell-based or functional assay; remark: listed apart in the source
[7] = biological target: T1, human FAP on the surface of CHO-K1 …; test: FACS, CHO-K1-HuFAP cells; remark: listed apart in the source
[8] = biological target: T2, human 4-1BB on the surface of HEK293 …; test: cell-based or functional assay; remark: listed apart in the source
[9] = biological target: T2, human 4-1BB on the surface of HEK293 …; test: FACS, HEK293-Hu4-1BB cells; remark: listed apart in the source
[10] = biological target: T3, human CD40 on the surface of HEK293 …; test: FACS, HEK293-HuCD40 cells
[11] = biological target: T3, human CD40 on the surface of HEK293 …; test: FACS, HEK293-HuCD40 cells; remark: listed apart in the source
[12] = biological target: T2, human 4-1BB on the surface of HEK293 …; test: FACS, HEK293-Hu4-1BB cells; remark: listed apart in the source
[13] = biological target: T2, human 4-1BB on the surface of HEK293 …; test: FACS, HEK293-Hu4-1BB cells; remark: listed apart in the source
[14] = biological target: T2, human 4-1BB on the surface of HEK293 …; test: cell-based or functional assay; remark: listed apart in the source
[15] = biological target: T2, human 4-1BB on the surface of HEK293 …; test: cell-based or functional assay; remark: listed apart in the source
[16] = biological target: T2, human 4-1BB on the surface of HEK293 …; test: FACS, HEK293-Hu4-1BB cells; remark: listed apart in the source

Row | Binder | Maximum fluorescence value [1] | 4-1BB/NF-κB luciferase reporter, CD40-crosslinked, Fold change in Emax [2] [fold] | 4-1BB/NF-κB luciferase reporter, FAP-crosslinked, Fold change in Emax [2] [fold] | 4-1BB/NF-κB luciferase reporter, uncrosslinked, Fold change in Emax [2] [fold] | CD40/NF-κB reporter (HEK-Blue CD40L), 4-1BB-crosslinked, Fold change in Emax [3] [fold] | CD40/NF-κB reporter (HEK-Blue CD40L), FAP-crosslinked, Fold change in Emax [3] [fold] | CD40/NF-κB reporter (HEK-Blue CD40L), uncrosslinked, Fold change in Emax [3] [fold] | Maximum fluorescence value [4] | CD40/NF-κB reporter (HEK-Blue CD40L), 4-1BB-crosslinked, Fold change in Emax [5] [fold] | CD40/NF-κB reporter (HEK-Blue CD40L), FAP-crosslinked, Fold change in Emax [5] [fold] | CD40/NF-κB reporter (HEK-Blue CD40L), uncrosslinked, Fold change in Emax [5] [fold] | Maximum fluorescence value [7] | 4-1BB/NF-κB luciferase reporter, CD40-crosslinked, Fold change in Emax [8] [fold] | 4-1BB/NF-κB luciferase reporter, FAP-crosslinked, Fold change in Emax [8] [fold] | 4-1BB/NF-κB luciferase reporter, uncrosslinked, Fold change in Emax [8] [fold] | Maximum fluorescence value [9] | EC50 [10] [nM] | EC50 [12] [nM] | Maximum fluorescence value [12] | EC50 [13] [nM] | also measured
1 | B1 | 82700 | 1.07 | 1.01 | 1.1 | 5 | 6.47 | 4.57 | 73 | 4.27 | 11.3 | 3.73 | 77200 | 1.1 | 1.05 | 1.06 | 70 | 6.85 |  |  |  | EC50 [1]: 2.73 nM; CD40/NF-κB reporter (HEK-Blue CD40L), FAP-crosslinked, EC50 [3]: 0.23 nM; CD40/NF-κB reporter (HEK-Blue CD40L), FAP-crosslinked, EC50 [5]: 0.35 nM; CD40/NF-κB reporter (HEK-Blue CD40L), 4-1BB-crosslinked, Fold change in Emax [6]: 8.42 fold; CD40/NF-κB reporter (HEK-Blue CD40L), FAP-crosslinked, EC50 [6]: 0.025 nM; CD40/NF-κB reporter (HEK-Blue CD40L), FAP-crosslinked, Fold change in Emax [6]: 11.9 fold; CD40/NF-κB reporter (HEK-Blue CD40L), uncrosslinked, Fold change in Emax [6]: 7.05 fold; EC50 [7]: 1.72 nM; Maximum fluorescence value [10]: 55200; EC50 [11]: 4.77 nM; Maximum fluorescence value [11]: 54000
2 | B2 | 449 | 3.56 | 1.01 | 1.1 | 5.97 | 5.41 | 5.06 | 25700 | 9.51 | 6.27 | 7.66 | 77 | 4.76 | 1.19 | 1.09 | 29300 | 2.77 |  |  |  | 4-1BB/NF-κB luciferase reporter, CD40-crosslinked, EC50 [2]: 0.41 nM; CD40/NF-κB reporter (HEK-Blue CD40L), 4-1BB-crosslinked, EC50 [3]: 1.03 nM; EC50 [4]: 2.17 nM; CD40/NF-κB reporter (HEK-Blue CD40L), 4-1BB-crosslinked, EC50 [5]: 0.69 nM; 4-1BB/NF-κB luciferase reporter, CD40-crosslinked, EC50 [8]: 1.65 nM; 4-1BB/NF-κB luciferase reporter, FAP-crosslinked, EC50 [8]: 0.293 nM; EC50 [9]: 0.77 nM; Maximum fluorescence value [10]: 109000; EC50 [11]: 6.78 nM; Maximum fluorescence value [11]: 108000
3 | B3 |  |  |  |  |  |  |  |  |  |  |  |  |  |  |  |  |  | 1.64 | 39700 | 1.64 | Activation of HEK293-4-1BB cells (NF-κB reporter), Fold change in Emax [14]: 1.7 fold; FcγRIIb-mediated activation of HEK293-4-1BB cells (NF-κB reporter), Fold change in Emax [14]: 2.61 fold; 4-1BB/NF-κB luciferase reporter, FcγRIIb crosslinking, EC50 [15]: 0.027 nM; 4-1BB/NF-κB luciferase reporter, no FcγRIIb crosslinking, EC50 [15]: 2.19 nM; EC50 [16]: 1.18 nM; Maximum fluorescence value [16]: 1000
4 | B4 |  |  |  |  |  |  |  |  |  |  |  |  |  |  |  |  |  | 0.98 | 53700 | 0.98 | Activation of HEK293-4-1BB cells (NF-κB reporter), Fold change in Emax [14]: 1.37 fold; FcγRIIb-mediated activation of HEK293-4-1BB cells (NF-κB reporter), Fold change in Emax [14]: 2.02 fold; EC50 [16]: 1.62 nM; Maximum fluorescence value [16]: 1030
5 | B5 |  |  |  |  |  |  |  |  |  |  |  |  |  |  |  |  |  | 0.62 | 53800 | 0.62 | 
